This is an account of results in the supplement of paper PMC10065799, “High-throughput profiling of sequence recognition by tyrosine kinases and SH2 domains using bacterial peptide display” (eLife, 2023).

The subject of series [1] is AncSZ. Briefly: phosphorylation enrichment, bacterial display (enrichment ratio); higher = better substrate or ligand; peptides without Tyr show the background.
Series [2] has as its target EPHB1 (UniProt P54762). Described as above.
Series [3] has as its target EPHB2 (UniProt P29323). The description is as above.
Series [4] has as its target FGFR1 (UniProt P11362). The series is described as above.
Series [5] has as its target FGFR3 (UniProt P22607). Described as above.
Series [6] has as its system Fer (mouse). Described as above.
Series [7] deals with Fes (UniProt P07332). The description is as above.
In series [8] the target is Fyn (UniProt P06241). The series is described as above.
In series [9] the target is Hck (UniProt P08631). The series is described as above.
Series [10] addresses Jak2 (UniProt O60674). The series is described as above.
In series [11] the target is MERTK (UniProt Q12866). Described as above.
Series [12] has as its system c-Abl (mouse). Described as above.
The subject of series [13] is c-Src. The description is as above.
Series [14] deals with Grb2 SH2 (UniProt P62993). Briefly: SH2 binding enrichment of the phosphorylated peptide, bacterial display (enrichment ratio); higher = better substrate or ligand; peptides without Tyr show the background.
In series [15] the target is SHP2-C SH2. The description is as above.
Series [16] has as its target c-Src SH2. The series is described as above.
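Throughout, for SH2 binding enrichment of the phosphorylated peptide, bacterial display: peptide library displayed on the E. coli surface as eCPX fusions, selected cells deep-sequenced, score is each peptide's frequency after selection divided by its frequency in the input.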
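Throughout, for phosphorylation enrichment, bacterial display: 11-residue human phosphosite peptides and single-mutation variants displayed on the E. coli surface, counted by deep sequencing, each peptide's frequency after selection divided by its frequency in the unselected input library; frequency after pTyr selection over input frequency; kinase dosed for 20-30% of maximal phosphorylation in three min.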

Sequence of FGFR1 (P11362 whole entry, looked up): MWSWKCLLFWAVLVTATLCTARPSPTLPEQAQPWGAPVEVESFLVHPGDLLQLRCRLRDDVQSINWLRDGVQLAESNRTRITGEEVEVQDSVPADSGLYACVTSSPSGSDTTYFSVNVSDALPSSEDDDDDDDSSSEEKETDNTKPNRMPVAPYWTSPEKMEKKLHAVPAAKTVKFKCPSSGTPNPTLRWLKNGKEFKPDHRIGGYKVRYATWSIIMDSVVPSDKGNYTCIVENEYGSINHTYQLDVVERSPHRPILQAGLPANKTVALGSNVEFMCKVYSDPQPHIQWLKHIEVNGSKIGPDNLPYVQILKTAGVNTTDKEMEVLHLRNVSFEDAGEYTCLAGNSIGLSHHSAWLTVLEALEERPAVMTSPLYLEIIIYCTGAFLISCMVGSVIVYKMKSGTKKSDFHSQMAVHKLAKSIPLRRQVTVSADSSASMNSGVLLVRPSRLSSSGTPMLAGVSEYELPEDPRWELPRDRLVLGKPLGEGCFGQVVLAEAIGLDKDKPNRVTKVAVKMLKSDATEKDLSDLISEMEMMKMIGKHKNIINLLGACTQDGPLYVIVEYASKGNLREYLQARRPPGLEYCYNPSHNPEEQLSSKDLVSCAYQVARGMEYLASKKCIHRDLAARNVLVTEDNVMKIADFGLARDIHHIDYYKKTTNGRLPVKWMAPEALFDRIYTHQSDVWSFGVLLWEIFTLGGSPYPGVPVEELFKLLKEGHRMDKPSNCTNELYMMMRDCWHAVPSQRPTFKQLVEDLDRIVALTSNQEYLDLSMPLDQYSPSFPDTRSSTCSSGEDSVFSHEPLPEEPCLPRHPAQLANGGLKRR
Sequence of Hck (P08631 whole entry, looked up): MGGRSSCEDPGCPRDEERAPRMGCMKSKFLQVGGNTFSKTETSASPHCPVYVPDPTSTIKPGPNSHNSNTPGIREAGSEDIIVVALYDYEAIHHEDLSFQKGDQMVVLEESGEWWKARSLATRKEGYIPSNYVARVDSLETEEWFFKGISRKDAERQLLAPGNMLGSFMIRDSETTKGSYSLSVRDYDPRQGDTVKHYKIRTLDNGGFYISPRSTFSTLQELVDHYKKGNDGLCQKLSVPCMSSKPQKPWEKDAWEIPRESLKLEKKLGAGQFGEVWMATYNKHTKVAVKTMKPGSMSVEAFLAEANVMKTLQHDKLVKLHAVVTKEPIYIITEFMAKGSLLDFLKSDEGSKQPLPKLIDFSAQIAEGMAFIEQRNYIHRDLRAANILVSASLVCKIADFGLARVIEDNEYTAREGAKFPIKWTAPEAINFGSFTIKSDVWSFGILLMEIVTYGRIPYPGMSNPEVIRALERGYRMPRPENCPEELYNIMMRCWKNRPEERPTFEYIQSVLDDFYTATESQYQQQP
Sequence of Fyn (P06241 whole entry, looked up): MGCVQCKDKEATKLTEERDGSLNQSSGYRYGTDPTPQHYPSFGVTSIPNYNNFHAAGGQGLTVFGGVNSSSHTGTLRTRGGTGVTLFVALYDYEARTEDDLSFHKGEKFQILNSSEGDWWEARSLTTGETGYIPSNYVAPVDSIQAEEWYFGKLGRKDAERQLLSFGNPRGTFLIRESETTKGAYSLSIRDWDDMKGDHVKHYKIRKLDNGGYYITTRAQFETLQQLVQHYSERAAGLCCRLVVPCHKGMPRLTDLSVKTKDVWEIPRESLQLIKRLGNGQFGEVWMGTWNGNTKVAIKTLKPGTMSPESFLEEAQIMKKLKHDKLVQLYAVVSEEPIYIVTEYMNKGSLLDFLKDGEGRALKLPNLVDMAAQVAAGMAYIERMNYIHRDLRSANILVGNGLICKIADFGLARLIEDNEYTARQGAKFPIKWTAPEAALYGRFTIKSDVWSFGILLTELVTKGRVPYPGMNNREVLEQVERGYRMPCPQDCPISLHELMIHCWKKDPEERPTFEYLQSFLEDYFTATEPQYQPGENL
Sequence of MERTK (Q12866 whole entry, looked up): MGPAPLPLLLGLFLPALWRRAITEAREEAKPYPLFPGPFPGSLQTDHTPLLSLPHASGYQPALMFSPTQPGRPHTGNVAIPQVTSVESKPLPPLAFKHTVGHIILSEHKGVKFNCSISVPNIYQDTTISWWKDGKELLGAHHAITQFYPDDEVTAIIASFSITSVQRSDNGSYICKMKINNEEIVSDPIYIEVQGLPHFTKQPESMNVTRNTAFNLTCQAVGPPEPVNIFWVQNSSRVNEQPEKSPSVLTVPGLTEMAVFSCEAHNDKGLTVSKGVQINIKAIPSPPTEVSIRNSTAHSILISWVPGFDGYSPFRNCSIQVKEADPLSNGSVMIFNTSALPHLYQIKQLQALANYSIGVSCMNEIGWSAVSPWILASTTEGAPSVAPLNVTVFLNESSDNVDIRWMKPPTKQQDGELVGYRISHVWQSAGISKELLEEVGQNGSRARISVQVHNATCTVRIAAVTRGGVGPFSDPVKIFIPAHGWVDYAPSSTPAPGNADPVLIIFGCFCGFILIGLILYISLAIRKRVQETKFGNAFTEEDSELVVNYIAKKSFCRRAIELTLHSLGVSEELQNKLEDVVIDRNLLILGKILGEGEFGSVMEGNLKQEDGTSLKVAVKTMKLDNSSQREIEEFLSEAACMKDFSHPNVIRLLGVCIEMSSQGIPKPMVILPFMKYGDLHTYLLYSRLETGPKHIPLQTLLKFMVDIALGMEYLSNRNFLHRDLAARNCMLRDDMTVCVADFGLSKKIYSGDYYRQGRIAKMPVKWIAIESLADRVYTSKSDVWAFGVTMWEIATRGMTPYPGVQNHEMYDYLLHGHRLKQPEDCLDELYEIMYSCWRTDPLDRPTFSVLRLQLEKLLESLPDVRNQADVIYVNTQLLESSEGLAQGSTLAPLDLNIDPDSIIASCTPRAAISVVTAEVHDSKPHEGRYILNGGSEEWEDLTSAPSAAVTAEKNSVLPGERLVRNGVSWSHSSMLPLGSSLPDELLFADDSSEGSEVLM
Sequence of EPHB2 (P29323 whole entry, looked up): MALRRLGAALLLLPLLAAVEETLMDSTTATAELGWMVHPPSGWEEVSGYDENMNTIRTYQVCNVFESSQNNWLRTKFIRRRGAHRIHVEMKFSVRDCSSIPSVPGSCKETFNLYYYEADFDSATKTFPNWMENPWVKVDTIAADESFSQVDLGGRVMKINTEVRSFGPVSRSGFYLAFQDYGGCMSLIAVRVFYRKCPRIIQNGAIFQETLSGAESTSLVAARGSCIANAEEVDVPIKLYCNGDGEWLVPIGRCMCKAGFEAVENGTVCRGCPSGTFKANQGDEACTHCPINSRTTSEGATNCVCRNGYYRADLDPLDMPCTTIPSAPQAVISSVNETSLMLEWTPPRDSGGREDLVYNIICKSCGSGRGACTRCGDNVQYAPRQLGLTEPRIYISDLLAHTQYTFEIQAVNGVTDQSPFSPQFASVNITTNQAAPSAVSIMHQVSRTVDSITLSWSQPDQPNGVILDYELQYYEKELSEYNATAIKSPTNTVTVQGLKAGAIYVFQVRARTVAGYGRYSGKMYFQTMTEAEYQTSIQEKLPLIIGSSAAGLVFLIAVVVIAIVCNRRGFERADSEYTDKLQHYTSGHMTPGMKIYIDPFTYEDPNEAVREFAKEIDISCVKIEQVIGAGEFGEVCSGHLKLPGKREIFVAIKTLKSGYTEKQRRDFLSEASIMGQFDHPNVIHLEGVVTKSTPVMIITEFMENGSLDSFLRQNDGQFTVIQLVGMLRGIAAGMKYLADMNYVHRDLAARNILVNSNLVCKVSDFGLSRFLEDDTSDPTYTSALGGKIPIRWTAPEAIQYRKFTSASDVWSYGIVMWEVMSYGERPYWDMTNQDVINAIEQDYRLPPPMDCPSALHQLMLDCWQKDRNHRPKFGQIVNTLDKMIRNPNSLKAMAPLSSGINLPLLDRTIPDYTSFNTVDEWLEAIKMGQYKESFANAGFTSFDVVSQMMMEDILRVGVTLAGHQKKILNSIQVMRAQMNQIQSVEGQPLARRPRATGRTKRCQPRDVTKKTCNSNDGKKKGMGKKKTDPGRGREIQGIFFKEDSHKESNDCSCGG
Sequence of Grb2 SH2 (P62993 whole entry, looked up): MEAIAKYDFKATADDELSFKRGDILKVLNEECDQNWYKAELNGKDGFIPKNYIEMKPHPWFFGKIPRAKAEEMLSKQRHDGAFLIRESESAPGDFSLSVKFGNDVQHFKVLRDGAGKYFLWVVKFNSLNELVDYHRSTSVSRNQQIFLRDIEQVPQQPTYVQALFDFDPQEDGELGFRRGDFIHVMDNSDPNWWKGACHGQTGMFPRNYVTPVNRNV
Sequence of Fes (P07332 whole entry, looked up): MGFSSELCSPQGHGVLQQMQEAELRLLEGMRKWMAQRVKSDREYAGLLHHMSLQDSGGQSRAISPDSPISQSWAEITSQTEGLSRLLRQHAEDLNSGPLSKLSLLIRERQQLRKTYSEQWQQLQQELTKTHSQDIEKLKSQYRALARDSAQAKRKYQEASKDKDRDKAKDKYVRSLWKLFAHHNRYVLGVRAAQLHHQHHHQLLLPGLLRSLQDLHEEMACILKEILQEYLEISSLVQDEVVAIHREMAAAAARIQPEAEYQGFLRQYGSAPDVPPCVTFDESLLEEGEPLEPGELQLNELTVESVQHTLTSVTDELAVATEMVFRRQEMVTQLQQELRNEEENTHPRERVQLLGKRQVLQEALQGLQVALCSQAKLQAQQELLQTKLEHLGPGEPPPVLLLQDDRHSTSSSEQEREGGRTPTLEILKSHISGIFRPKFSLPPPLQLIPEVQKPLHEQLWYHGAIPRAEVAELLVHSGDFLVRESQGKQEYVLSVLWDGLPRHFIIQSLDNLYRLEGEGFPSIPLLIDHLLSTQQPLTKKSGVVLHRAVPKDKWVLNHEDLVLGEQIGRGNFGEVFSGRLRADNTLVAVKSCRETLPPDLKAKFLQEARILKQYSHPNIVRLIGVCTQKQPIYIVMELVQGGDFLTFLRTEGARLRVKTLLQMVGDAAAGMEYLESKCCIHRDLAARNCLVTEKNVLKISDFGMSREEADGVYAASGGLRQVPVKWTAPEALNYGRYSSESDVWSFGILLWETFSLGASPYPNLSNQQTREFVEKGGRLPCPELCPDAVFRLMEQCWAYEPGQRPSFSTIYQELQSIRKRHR

As for LAGRFYALKSM [CKB_Y174_YF], the phosphorylation enrichment in series [1] is 1.86; in series [2], 0.677; in series [3], 0.573; in series [4] it was 0.479; in series [5], 0.991; in series [6] it was 0.46. The phosphorylation enrichment in series [7] came out at 1.61; in [8], 0.463; in [9], 0.509; in series [10] it was 1.32; in series [11], 0.666; in [12], 1.18. The phosphorylation enrichment in series [13] is 0.461. Further, the SH2 binding enrichment in [14] came out at 1.23; in series [15], 1.11; in [16], 1.12.
For the sequence RFLTRYIFNRE [HLA-DQB1_Y62_V59L_YF], the phosphorylation enrichment in [1] came to 1; in [2], 0.624; in [3] it was 0.567; in series [4], 0.408; in series [5], 0.674; in [6] it was 0.897. Besides, the phosphorylation enrichment in series [7] turned out to be 1.17; in [8] it was 0.606; in series [9], 0.452; in series [10] it was 1.29; in series [11] it was 0.578; in series [12], 0.631. The phosphorylation enrichment in series [13] worked out at 0.706. Besides, the SH2 binding enrichment in series [14] came out at 0.67; in series [15], 1.17; in series [16] it was 0.593.
Regarding SYCYRYRCAAR [SUMF1_Y344], the phosphorylation enrichment in series [1] was 0.789; in series [2], 0.309; in series [3], 0.512; in series [4] it was 0.538; in series [5] it was 0.448; in series [6] it was 0.37. Moreover, the phosphorylation enrichment was 0.651 in series [7]; 0.484 in [8]; 0.386 in series [9]; 0.728 in series [10]; 0.549 in [11]; 0.776 in series [12]. The phosphorylation enrichment in series [13] was found to be 0.54. The SH2 binding enrichment was 0.717 in series [14], 0.608 in series [15] and 0.419 in series [16].
In the case of QQMGTYGVRAA [ICAM2_Y260_R256Q], the phosphorylation enrichment came out at 0.33 in series [1]; 0.281 in series [2]; 0.414 in series [3]; 0.392 in [4]; 0.417 in [5]; 0.339 in series [6]. The phosphorylation enrichment was 0.579 in series [7]; 2.06 in [8]; 3.77 in series [9]; 0.313 in series [10]; 0.658 in series [11]; 0.442 in series [12]. Moreover, the phosphorylation enrichment in [13] amounted to 2.48. Besides, the SH2 binding enrichment in series [14] was 1.07; in [15], 0.373; in series [16], 0.37.
In the case of CNPLRYPVLMS [OR2T1_Y182], the phosphorylation enrichment was found to be 0.839 in series [1]; 0.549 in series [2]; 0.567 in series [3]; 0.476 in [4]; 0.621 in series [5]; 0.453 in [6]. For the same sequence, the phosphorylation enrichment in [7] was determined as 0.913; in series [8], 0.5; in series [9], 0.518; in series [10], 0.758; in series [11], 0.428; in series [12], 0.896. Further, in [13], the phosphorylation enrichment is 0.498. In addition, the SH2 binding enrichment is 0.975 in series [14], 0.875 in [15] and 0.742 in series [16].
With FKEQGYHRLPP [RIN1_Y681_YF], the phosphorylation enrichment amounted to 0.441 in series [1]; 0.561 in [2]; 0.298 in series [3]; 0.58 in series [4]; 0.528 in series [5]; 0.363 in [6]. The phosphorylation enrichment is 0.679 in series [7]; 0.457 in series [8]; 0.456 in series [9]; 0.877 in series [10]; 0.377 in series [11]; 0.345 in series [12]. In series [13], the phosphorylation enrichment turned out to be 0.37. Besides, the SH2 binding enrichment in series [14] was 0.94; in series [15], 0.77; in [16] it was 0.742.
For MGSYNYLGFAW [SPTLC2_Y178_R183W], the phosphorylation enrichment in [1] was 1.11; in series [2], 3.69; in series [3], 1.88; in series [4] it was 2.96; in series [5] it was 2.24; in series [6] it was 0.617. Also, the phosphorylation enrichment in series [7] was 0.937; in series [8], 0.708; in series [9], 1.4; in series [10], 3.68; in [11], 3.65; in [12], 0.737. Moreover, the phosphorylation enrichment in [13] was 1.04. Also, the figures for the SH2 binding enrichment in series [14], in [15] and in [16] were 0.682, 0.845 and 0.477, respectively.
For NQILPYIEELV [PPP2R1B_Y341_K343E], the phosphorylation enrichment worked out at 1.37 in series [1]; 0.673 in series [2]; 0.644 in series [3]; 0.533 in series [4]; 0.781 in series [5]; 0.931 in series [6]. Besides, the phosphorylation enrichment in series [7] came out at 1.28; in [8] it was 0.53; in series [9], 0.568; in [10] it was 1.45; in series [11] it was 0.504; in series [12], 0.875. For the same sequence, the phosphorylation enrichment in [13] came out at 0.507. In addition, the SH2 binding enrichment in series [14] was determined as 0.979; in series [15], 0.953; in series [16], 0.725.
